For experiment [1], the target named is ACP-GluA1 (GluA1 tagged with the acyl carrier protein at its N-terminus) (mouse). The experiment can be described thus: single-molecule fluorescence tracking (TIRF), colocalization durations, single colour; living HEK293 cells, plasma membrane, 33 ms per frame, colocalization = two spots within 240 nm; duration histograms fitted with a single exponential, lifetimes corrected for photobleaching; 37 °C (monomer references ACP-TM and Halo7-TM at 22 °C); GluA1 and GluA2 homodimers also with TARP2-mGFP overexpression (lifetimes not significantly altered).

Experiment [2] addresses Halo7-GluA2 (GluA2 tagged with Halo7 at its N-terminus, pcDNA3.1B) (UniProt P23819). The experiment in a line: single-molecule fluorescence tracking (TIRF), colocalization durations, simultaneous two colours; living HEK293 cells, plasma membrane, ATTO594 on ACP tags and rhodamine110 on Halo7 tags, colocalization = within 240 nm; lifetimes corrected for photobleaching; 37 °C (ACP-TM with Halo7-TM at 22 °C).

In experiment [3] the target is Halo7-GluA1 (GluA1 tagged with Halo7 at its N-terminus, pcDNA3.1B) (mouse). The experiment is described as above.
Target sequence in this assay (P23818 19-907): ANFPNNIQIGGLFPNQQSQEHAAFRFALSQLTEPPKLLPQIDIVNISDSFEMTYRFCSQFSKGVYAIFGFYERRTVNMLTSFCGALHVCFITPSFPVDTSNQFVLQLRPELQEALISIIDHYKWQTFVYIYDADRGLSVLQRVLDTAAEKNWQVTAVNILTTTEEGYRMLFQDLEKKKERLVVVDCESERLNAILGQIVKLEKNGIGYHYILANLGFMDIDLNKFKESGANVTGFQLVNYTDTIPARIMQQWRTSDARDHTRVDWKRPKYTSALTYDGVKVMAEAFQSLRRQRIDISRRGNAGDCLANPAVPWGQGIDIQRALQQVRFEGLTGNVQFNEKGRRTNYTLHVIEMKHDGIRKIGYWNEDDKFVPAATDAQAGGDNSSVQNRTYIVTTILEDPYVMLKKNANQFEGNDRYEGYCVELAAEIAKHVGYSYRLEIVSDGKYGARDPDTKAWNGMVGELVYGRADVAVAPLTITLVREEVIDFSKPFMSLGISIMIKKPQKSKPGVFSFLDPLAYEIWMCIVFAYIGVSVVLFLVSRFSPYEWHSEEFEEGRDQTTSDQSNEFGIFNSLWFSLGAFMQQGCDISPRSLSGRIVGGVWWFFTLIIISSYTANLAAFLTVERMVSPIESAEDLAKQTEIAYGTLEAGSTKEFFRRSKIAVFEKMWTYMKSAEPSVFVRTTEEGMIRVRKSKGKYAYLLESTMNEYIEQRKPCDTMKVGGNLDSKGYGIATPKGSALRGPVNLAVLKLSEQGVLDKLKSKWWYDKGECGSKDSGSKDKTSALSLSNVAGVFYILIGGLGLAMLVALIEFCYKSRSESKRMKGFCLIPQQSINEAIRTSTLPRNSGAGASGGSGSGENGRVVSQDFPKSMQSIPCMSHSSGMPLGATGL
The target of experiment [4] is ACP-GluA1ΔNTD (ACP-GluA1 with the N-terminal domain deleted) (mouse). The experiment in a line: single-molecule fluorescence imaging (TIRF), distribution of spot signal intensities; living HEK293 cells, plasma membrane, various number densities of expressed molecules; intensity histograms of the initial ten frames fitted with the sum of four (references: two) lognormal functions for monomers, dimers, trimers, tetramers; incidental colocalizations not told apart from true assemblies; also with 0.1 mM AMPA or 10 mM L-glutamate (fractions not altered).

Experiment [5] has the same target. The experiment can be described thus: single-molecule fluorescence tracking (TIRF), colocalization durations, single colour; living HEK293 cells, plasma membrane, 33 ms per frame, colocalization = two spots within 240 nm; duration histograms fitted with a single exponential, lifetimes corrected for photobleaching; 37 °C (monomer references ACP-TM and Halo7-TM at 22 °C); GluA1 and GluA2 homodimers also with TARP2-mGFP overexpression (lifetimes not significantly altered).

The target in experiment [6] is Halo7-GluA1 (GluA1 tagged with Halo7 at its N-terminus, pcDNA3.1B) (mouse). The experiment is described as above.

Chain of ACP-GluA1ΔNTD (ACP-GluA1 with the N-terminal domain deleted) (domain or fragment) (P23818 378-907, stated change not applied): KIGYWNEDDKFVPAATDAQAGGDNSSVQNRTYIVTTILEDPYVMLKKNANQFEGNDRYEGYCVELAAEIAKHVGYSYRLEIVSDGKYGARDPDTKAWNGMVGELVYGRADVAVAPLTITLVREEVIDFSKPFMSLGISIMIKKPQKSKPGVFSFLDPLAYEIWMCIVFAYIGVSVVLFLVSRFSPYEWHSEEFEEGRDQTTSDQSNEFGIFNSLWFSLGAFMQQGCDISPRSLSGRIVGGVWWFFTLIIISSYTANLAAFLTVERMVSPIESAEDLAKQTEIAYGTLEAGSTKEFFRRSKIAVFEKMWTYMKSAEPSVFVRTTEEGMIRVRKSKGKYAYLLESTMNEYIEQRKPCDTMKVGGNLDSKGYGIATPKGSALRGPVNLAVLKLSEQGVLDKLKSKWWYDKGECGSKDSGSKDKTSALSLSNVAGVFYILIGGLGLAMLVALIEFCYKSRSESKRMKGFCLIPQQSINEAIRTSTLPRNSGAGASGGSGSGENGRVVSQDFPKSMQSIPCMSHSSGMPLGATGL
Chain of Halo7-GluA2 (GluA2 tagged with Halo7 at its N-terminus, pcDNA3.1B) (P23819 25-883): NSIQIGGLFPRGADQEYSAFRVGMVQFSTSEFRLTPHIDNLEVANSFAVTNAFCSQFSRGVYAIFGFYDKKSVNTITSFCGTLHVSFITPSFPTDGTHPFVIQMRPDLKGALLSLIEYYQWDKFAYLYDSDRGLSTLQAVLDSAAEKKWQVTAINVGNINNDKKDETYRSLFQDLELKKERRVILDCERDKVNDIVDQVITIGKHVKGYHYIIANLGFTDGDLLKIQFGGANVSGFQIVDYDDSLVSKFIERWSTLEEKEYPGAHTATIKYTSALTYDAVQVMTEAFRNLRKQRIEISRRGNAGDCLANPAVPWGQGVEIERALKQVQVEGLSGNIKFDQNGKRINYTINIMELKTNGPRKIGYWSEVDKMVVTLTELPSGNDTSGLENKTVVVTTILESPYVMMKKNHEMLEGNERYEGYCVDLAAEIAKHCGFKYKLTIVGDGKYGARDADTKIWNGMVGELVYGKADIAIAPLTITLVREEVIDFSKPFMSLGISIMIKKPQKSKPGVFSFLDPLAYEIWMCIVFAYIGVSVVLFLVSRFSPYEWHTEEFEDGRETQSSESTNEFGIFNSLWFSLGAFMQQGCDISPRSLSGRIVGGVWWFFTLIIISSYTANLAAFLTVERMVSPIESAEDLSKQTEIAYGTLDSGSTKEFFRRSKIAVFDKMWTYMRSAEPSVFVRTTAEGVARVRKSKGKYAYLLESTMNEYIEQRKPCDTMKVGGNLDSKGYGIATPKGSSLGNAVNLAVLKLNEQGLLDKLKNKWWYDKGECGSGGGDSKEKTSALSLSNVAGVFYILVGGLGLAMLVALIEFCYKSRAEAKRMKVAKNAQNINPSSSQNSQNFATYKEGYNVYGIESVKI
Chain of ACP-GluA1 (GluA1 tagged with the acyl carrier protein at its N-terminus) (receptor) (P23818 19-907): as the sequence (P23818 19-907) above
Chain of Halo7-GluA1 (GluA1 tagged with Halo7 at its N-terminus, pcDNA3.1B) (receptor) (P23818 19-907): as above

In experiment [1], “ACP-GluA1 (GluA1 tagged with the acyl carrier protein at its N-terminus) (receptor)” displayed a colocalization lifetime, homodimer of 164 ms; a colocalization lifetime, homotetramer of 98 ms; a colocalization lifetime, homotrimer of 117 ms. In experiment [2], the colocalization lifetime, GluA1/A2 heterodimer (average of the two tag combinations) came to 334 ms; the colocalization lifetime, GluA1/A2 heterotetramer (average of the two tag combinations) is 208 ms; the exponential lifetime, GluA1/A2 heterodimer worked out at 335 ms. The same substance gave a colocalization lifetime, homodimer in experiment [3] of 177 ms.
Regarding “ACP-GluA1ΔNTD (ACP-GluA1 with the N-terminal domain deleted) (domain or fragment)”, the tetramer fraction, fold smaller than that of full-length GluA1 (at 1–1.2 copies μm^−2) in experiment [4] fell in the range of 3 to 4 fold. Besides, in experiment [5], the colocalization lifetime, homodimer was 100 ms and the colocalization lifetime, homotetramer amounted to 41 ms.
As to “Halo7-GluA1 (GluA1 tagged with Halo7 at its N-terminus, pcDNA3.1B) (receptor)”, the colocalization lifetime, homodimer in experiment [6] came out at 164 ms.

The values above are taken from article PMC6868016.
